In patent publication US20220396632A1 (VERSEAU THERAPEUTICS, published 2022):
Blank lines part the entries; values can stand above or below the binder they belong to.

Key:
[1] = molecular target: T1, PSGL-1(42-62) N-terminal peptide, sulfation state not told at the place (human, not fully specified; sulfation of Y46, Y48, Y51 not stated for these table columns); assay: mAb binding to PSGL-1(42-62)
T1 peptide: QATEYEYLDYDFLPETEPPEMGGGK

[2] = molecular target: T2, Cynomolgus PSGL-1(ECD)-HIS (cynomolgus macaque); assay: ELISA, plate cyno PSGL-1(ECD)-HIS
T2 construct: also called Cyno PSGL1-His
T2 chain: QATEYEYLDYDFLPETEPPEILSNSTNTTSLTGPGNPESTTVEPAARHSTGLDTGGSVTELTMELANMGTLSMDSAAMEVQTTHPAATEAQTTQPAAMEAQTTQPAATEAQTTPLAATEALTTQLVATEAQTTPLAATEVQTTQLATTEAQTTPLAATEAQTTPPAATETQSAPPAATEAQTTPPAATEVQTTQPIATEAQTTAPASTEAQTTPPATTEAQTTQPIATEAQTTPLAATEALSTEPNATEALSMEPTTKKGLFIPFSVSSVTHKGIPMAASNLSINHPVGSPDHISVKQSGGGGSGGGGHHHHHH
Protocol: Antibody binding to plate-immobilized cyno PSGL-1(ECD) was determined either at one concentration (20 nM) or by generating full antibody binding curves (0.003-200 nM). A typical ELISA was performed by overnight coating at 4° C. with 3 ug/mL/25 ul per well of recombinant cyno PSGL-1(ECD) protein in PBS, pH 7.4, in high binding half-well plates (Corning Cat. #3690). […] Anti-PSGL-1 IgG in assay buffer (blocking buffer containing 0.05% tween 20) was added into test and control wells (20 nM/25 ul/well) and the plate incubated for 45 min at 37° C. […] The plate was incubated for 45 min at 37° C., and mAb bound to plate-immobilized target determined at A450 nm using HRP substrate (3,3′,5,5′-tetramethylbenzidine (TMB)). For each antibody, duplicate values were averaged and assay background subtracted.

[3] = molecular target: T3, Biotin Y46,48,51(SO3) PSGL-1(42-62) peptide (human, sulfotyrosine at Y46, Y48 and Y51; C-terminal Lys-biotin); assay: ELISA, plate-bound target
T3 construct: also called fully sulfated N-terminal PSGL-1 peptide
T3 peptide: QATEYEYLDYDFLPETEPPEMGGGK
Protocol: (§1) Two ELISA methods were performed. One procedure detected mAb binding to its plate-immobilized target and the other measured the immobilized antibody's ability to capture biotinylated PSGL-1₄₂₋₆₂. […] The plate was incubated for 45 min at 37° C. Plates were washed 3 times with wash buffer (PBS containing 0.05% tween 20, pH 7.4) and a single concentration (2 to 500 nM) or serially diluted (0.002-100 nM) anti-PSGL-1 mAb was added (25 ul/well) in assay buffer into appropriate wells. The plate was incubated for 45 min at 37° C., washed 3 times, and an appropriate HRP-conjugated secondary antibody added (25 ul/well) (HRP goat anti-mouse or anti-human IgG). After 45 min incubation at 37° C., the plate was washed, and antibody bound to plate-immobilized target was determined at A450 nm using HRP substrate (3,3′,5,5′-etramethylbenzidine (TMB)). For each antibody, duplicate values were averaged and assay background was subtracted. Except for the following, ELISAs involving plate-immobilized mAb capturing of biotinylated PSGL-1₄₂₋₆₂ peptides was performed in the same manner as described above: 3 ug/mL/25 ul per well of mAb was coated directly onto microtiter plate wells; biotinylated unmodified or sulfotyrosine PSGL-1₄₂₋₆₂ was serially diluted (3 nM-3 uM) into appropriate wells, and antibody-bound peptide was detected using HRP-streptavidin (Jackson Immunoresearch, Cat. #016-030-084).

[4] = molecular target: T4, Recombinant human PSGL-1(ECD)-hFc1 (R&D Systems, Cat. 3345-PS) (human, UniProt Q14242 42-305); assay: ELISA, plate-bound target
T4 construct: Bought; Gln42-Val295 counted on AAC50061; also called PSGL-1-Fc; PSGL-1-hFc1 chimera; not shown: human IgG1 Fc, Pro100-Lys330
T4 sequence: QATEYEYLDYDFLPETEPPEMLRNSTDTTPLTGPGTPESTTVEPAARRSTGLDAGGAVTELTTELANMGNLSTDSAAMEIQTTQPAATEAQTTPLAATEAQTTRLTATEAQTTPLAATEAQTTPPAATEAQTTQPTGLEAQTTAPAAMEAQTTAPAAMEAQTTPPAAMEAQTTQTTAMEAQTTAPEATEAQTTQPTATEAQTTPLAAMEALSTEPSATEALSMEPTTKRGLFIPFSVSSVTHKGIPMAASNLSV
Protocol: as §1

[5] = molecular target: T5, Biotin sY51 PSGL-1(42-62) peptide (human, sulfotyrosine at Y51; C-terminal Lys-biotin); assay: capture ELISA; against 3 x sY peptide
T5 construct: also called Y51(SO3) PSGL-1(42-62)
T5 peptide: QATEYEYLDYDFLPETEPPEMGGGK
Protocol: as §1

[6] = molecular target: T3, Biotin Y46,48,51(SO3) PSGL-1(42-62) …; assay: capture ELISA; against 3 x sY peptide
Protocol: as §1

[7] = molecular target: T6, Biotin sY48 PSGL-1(42-62) peptide (human, sulfotyrosine at Y48; C-terminal Lys-biotin); assay: capture ELISA; against 3 x sY peptide
T6 construct: also called sY48S
T6 peptide: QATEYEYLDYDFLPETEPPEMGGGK
Protocol: as §1

[8] = molecular target: T5, Biotin sY51 PSGL-1(42-62) peptide; assay: ELISA, plate-bound mAb captures biotin peptide
Protocol: as §1

[9] = molecular target: T3, Biotin Y46,48,51(SO3) PSGL-1(42-62) …; assay: ELISA, plate-bound mAb captures biotin peptide
Protocol: as §1

[10] = molecular target: T6, Biotin sY48 PSGL-1(42-62) peptide; assay: ELISA, plate-bound mAb captures biotin peptide
Protocol: as §1

[11] = molecular target: T3, Biotin Y46,48,51(SO3) PSGL-1(42-62) …; assay: ELISA, plate-bound mAb captures biotin 3 x sY peptide
Protocol: (§2) A typical ELISA for N-terminal PSGL-1 reactive humanized mAbs binding to Y_{46,48,51}(SO₃) PSGL-1₍₄₂₋₆₂₎ involved coating high binding half-well plates (Corning Cat. #3690) with 3 ug/mL/25 ul per well of the mAbs or with an isotype hG4 control in PBS, pH 7.4, overnight at 4° C. […] Biotinylated Y_{46,48,51}(SO₃) PSGL-1₍₄₂₋₆₂₎ was added (25 ul per well) in duplicate at 2.8 uM in assay buffer (blocking buffer containing 0.05% tween 20) and serially diluted into test and control (just blocked) wells, and the plate incubated for 45 min at 37° C. The plate was washed ×3 and an appropriate HRP-conjugated streptavidin was added (25 ul per well; Jackson Immunoresearch, Cat. #016-030-084) and the plate was incubated for 45 min at 37° C. […] For each antibody, an EC50 value was determined from sigmoidal fitted peptide titration curve.

[12] = molecular target: T3, Biotin Y46,48,51(SO3) PSGL-1(42-62) …; assay: capture ELISA; against parent 18F02
Protocol: as §2

B3: 18F02.001 (antibody, IgG4, V domains shown)
VH: QVQLVQSGAEVKKPGSSVKVSCKASGYTFTSYWMHWVRQAPGQGLEWMGMIHPNSGRTNYNEKFKSRVTITVDKSTSTAYMELSSLRSEDTAVYYCARSDYWGQGTLVTVSS
VL: DIVMTQTPLSLSVTPGQPASISCRSSKSLLHSDGITYLYWFLQKPGQSPQLLIYRMSNLASGVPDRFSGSGSGTDFTLKISRVEAEDVGVYYCAQMLEFPRTFGQGTKLEIK
notes: Humanised
EC50 [11]: 160 nM
N-term peptide EC50 (normalized) [12]: 2.3 fold

B4: 18F02.002 (antibody, IgG4, V domains shown)
VH: EVQLVQSGAEVKKPGSSVKVSCKASGYTFTSYWMHWVRQAPGQGLEWMGMIHPNSGRTNYNEKFKSRVTITVDKSTSTAYMELSSLRSEDTAVYYCARSDYWGQGTLVTVSS
VL: DIVMTQTPLSLSVTPGQPASISCRSSKSLLHSDGITYLYWFLQKPGQSPQLLIYRMSNLASGVPDRFSGSGSGTDFTLKISRVEAEDVGVYYCAQMLEFPRTFGQGTKLEIK
notes: Humanised
EC50 [11]: 150 nM
N-term peptide EC50 (normalized) [12]: 2.1 fold

Results, then the binder that gave them:

binding result [1]: no binding
binding result [2]: no binding
B1: 20H10 (antibody, V domains shown)
VH: QVQLQQPGTELVKPGASVKLSCKASGYTFTNFWMHWVRQRPGQGLEWIGKINPGNGGTRYNEKFKTKATLTVDRSSSTACIQLSSLTSEDSAVYYCTSTNWDPYFDYWGQGTTLTVSS
VL: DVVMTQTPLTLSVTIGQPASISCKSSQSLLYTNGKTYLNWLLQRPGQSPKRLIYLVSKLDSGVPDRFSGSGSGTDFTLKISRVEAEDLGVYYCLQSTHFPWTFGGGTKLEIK
notes: Mouse hybridoma mAb; only variable domains given

EC50 [3]: 0.44 nM
EC50 [4]: ~0.1 nM
EC50/EC50 3x(SO3)Y [5]: ~6 fold
EC50/EC50 3x(SO3)Y [6]: 1 fold
EC50/EC50 3x(SO3)Y [7]: ~6 fold
EC50 [8]: ~600 nM
EC50 [9]: 93 nM
EC50 [10]: ~600 nM
B2: PSG3 (antibody, V domains shown)
VH: QVQLVQSGAEVKKPGSSVRVSCKASGGSFSSYGIHWVQQAPGQGLEWMGRIIPVLRIRNYAQKFHDRVTIDADTSTGTAYMELSSLTSDDTAVYYCAGSRQGVAPTGYWGQGTMVTVSS
VL: QAVLTQPSSLSASPGASASLTCNLRSGIDVGTYRIYWYQQKPGSPPQYLLRYKSDSDKQQGSGVPSRFSGTKDASANAGILLISGLQSEDEADYYCMIWHSNGWVFGGGTKLTVL
notes: Control anti-PSGL-1 mAb; only variable domains given
